The results in this text go back to US20090011510A1.

The target of this test is intracellular product of the soybean Rps1b gene (soybean). As to the kind of experiment: cell-based or functional assay.

In the case of “mature Avr1b (lacking the secretory leader), Phytophthora sojae”, the Killing in presence of Rps1b (ratio of GUS spots) was 0.22.
